Patent US20030177513A1

Target: thrombin
Experiment: cell-based or functional assay

ATIII activity by thrombin inhibition (two-stage colorimetric endpoint assay), milk at day 5: 20.5 U/ml
ATIII activity by thrombin inhibition (two-stage colorimetric endpoint assay), milk at day 9: 14.6 U/ml
Substance: recombinant human Antithrombin III (ATIII) in the milk of the cloned transgenic goat CFF6-1 (from UniProt P01008 33-464)
